The text below walks through data of patent US20090130105A1 (Biogen, published 2009).

Experiment [1] deals with T1, human IGF-1R(1-902)-His10 (human, UniProt P08069 31-932).
T1 construct: Bought from R&D Systems (305-GR-050); also called hIGF-1R-His10; hIGF-1R-His
Nature of the experiment: SPR competition (Biacore 3000): soluble antibody titrated into 40 nM hIGF-1R-His, mixture injected over immobilized M13-C06. As for the experimental part: Regeneration was achieved by three 10 μL injections of 0.1 M glycine, pH 2.0. 100% hIGF-1R-His binding to each antibody was determined by the signal above the baseline under mass transport-limiting conditions 60 seconds into the injection.
For orientation: SPR reads the build-up and loss of mass on a sensor chip optically.

Experiment [2] addresses T2, sIGF-1R(1-903) (human, UniProt P08069 31-933).
T2 construct: also called soluble IGF-1R ectodomain
Nature of the experiment: ITC, 25 °C, antibody into sIGF-1R(1-903). As for the experimental part:
Isothermal Titration Calorimetry (ITC). […] The reagents were co-dialyzed against PBS, pH 7.2. The protein solutions were adjusted to the concentrations listed above by dilution using PBS dialysate. […] The protein solutions were prepared as described above for the MAb binding experiments. All ITC experiments were performed on an ITC₂₀₀ microcalorimeter (MicroCal, LLC) at 25° C. […] IGF-1R bispecific antibodies. A four minute equilibration period was used between all injections with an initial delay of 60 seconds. Numerical integration of the data was performed using the ITC data analysis software supplied by MicroCal (Origin). ΔHA° (T) values were calculated based on the difference between the average heat liberated/absorbed during the binding phase of the injections and the average heat of dilution found once the receptor, IGF-1R, was saturated with MAb or BsAb.

The target of experiment [3] is T3, human IGF-1R on H322M non-small cell lung cancer cells (human, UniProt P08069 31-1367).
T3 construct: Endogenous receptor of the tumor cell line; also called cell surface IGF-1R
Description: flow cytometry on H322M cells, anti-human Fab PE secondary (FIG. 55A). As for the experimental part:
Cell lines were routinely cultured no greater than 20 passages. Flow cyotometric analysis of antibody binding to human cancer cells. Cells were lifted with cell dissociation buffer (Gibco catalog #13151-014), counted, washed and adjusted to 5×10⁶ cells/ml. Cells (2.5×10⁵; 50 uL) were added to each well of a 96-well round bottom plate (Costar #3799). Purified antibodies were tested at a starting concentration of 300 nM with serial half-log dilutions in FACS buffer. FACS buffer used throughout the assay was PBS (without Ca++/Mg++) containing 5% FBS. Samples were incubated on ice for 30 minutes, washed 3× with 200 uL FACS buffer and centrifuged at 1200 rpm for 3 minutes at 4° C. C2B8 (rituximab, IgG1) was used as a negative control. […] Samples were incubated for an additional 30 minutes on ice, shielded from light. Cells were washed as described above and resuspended in 100 μl FACS buffer containing propidium iodide (PI) for dead cell exclusion (BD Pharmingen, catalog# 51-66211E or 556463; use at 1:500 final in FACS buffer). Samples were run in triplicate using the FACSArray flow cytometer (Becton Dickinson) with 5000 live events collected per sample. Data analysis was performed using the GraphPad Prism version 5.0 software (GraphPad Software Inc., 11452 El Camino Real #215, San Diego, Calif. 92130). Results. […]
(A flow cytometer gives signals particle by particle.)

Experiment [4] concerns the target T2, sIGF-1R(1-903). Description: equilibrium solution-phase SPR, free sIGF-1R(1-903) read on C06 surface.
The target in a further experiment is T4, human IGF-1R(1-903)-Fc (human, UniProt P08069 31-933).
T4 construct: also called hIGF-1R-Fc; SDWT; not shown: human IgG1 Fc, C-terminal tag
Nature of the experiment: IGF-1 blocking ELISA at 80 nM IGF-1 His on biotinylated hIGF-1R-Fc. As for the experimental part: The dilutions were added to the plates in duplicate at 100 μL/well and the plates were incubated at RT for 1 hour. The plates were then washed four times with 200 μL/well PBST. An HRP-conjugated anti-Histag antibody (Penta-His HRP Conjugate, QIAGEN, Cat. No. 1014992) was diluted 1:1000 in PBST and added to plates at 100 μL/well, and the plates were incubated at RT for one hour. The plates were then washed four times with 200 μL/well PBST. SureBlue Reserve TMB Microwell Peroxidase Substrate (KPL, Cat. No. 53-00-01) was added to plates at 100 μL/well followed by 1% phosphoric acid at 100 μL/well once the desired reaction was observed. The absorbance of each well was determined at 450 nm, and the results were normalized and plotted against the log of antibody concentration.
Ligand Blocking Properties.
Background: An ELISA detects its analyte on a solid surface through an enzyme-linked reagent.

Experiment [5] has as its target T5, hIGF-1R-Fc mutant SD009 (E264K) (human, UniProt P08069 31-933).
T5 construct: not shown: human IgG1 Fc, C-terminal tag
Nature of the experiment: SPR: receptor-Fc captured on M13-C06 chip, then M13-C06 Fab; relative to wild type. As for the experimental part:
(§1) After, completion of the receptor-Fc loading step, flow rates were elevated to 5 μl/min. […] At the end of each sensorgram, the flow rate was elevated to 30 μl/min and the chip surface was regenerated by 2×10 μL injections of 0.1 M glycine, pH 2.

For experiment [6], the target named is T6, hIGF-1R-Fc mutant SD010 (G271D) (human, UniProt P08069 31-933).
T6 construct: not shown: human IgG1 Fc, C-terminal tag
Described as above. As for the experimental part:
as §1

The target in experiment [7] is T7, hIGF-1R-Fc mutant SD019 (E739W, L741F) (human, UniProt P08069 31-933).
T7 construct: not shown: human IgG1 Fc, C-terminal tag
The description is as above. As for the experimental part:
as §1

For experiment [8], the target named is T8, hIGF-1R-Fc mutant SD001 (Y28A) (human, UniProt P08069 31-933).
T8 construct: not shown: human IgG1 Fc, C-terminal tag
Described as above. As for the experimental part:
as §1

Experiment [9] concerns the target T9, hIGF-1R-Fc mutant SD006 (A227K) (human, UniProt P08069 31-933).
T9 construct: not shown: human IgG1 Fc, C-terminal tag
The experiment is described as above. As for the experimental part: as §1

Experiment [10] addresses T10, hIGF-1R-Fc mutant SD015 (H464E) (human, UniProt P08069 31-933).
T10 construct: not shown: human IgG1 Fc, C-terminal tag
Description: SPR (Biacore 3000): SD015 captured on immobilized M13-C06 surface, M13-C06 (Fab according to paragraph 695) injected at 0, 1, 3, 10 nM. As for the experimental part:
as §1

T2 sequence (P08069 31-933): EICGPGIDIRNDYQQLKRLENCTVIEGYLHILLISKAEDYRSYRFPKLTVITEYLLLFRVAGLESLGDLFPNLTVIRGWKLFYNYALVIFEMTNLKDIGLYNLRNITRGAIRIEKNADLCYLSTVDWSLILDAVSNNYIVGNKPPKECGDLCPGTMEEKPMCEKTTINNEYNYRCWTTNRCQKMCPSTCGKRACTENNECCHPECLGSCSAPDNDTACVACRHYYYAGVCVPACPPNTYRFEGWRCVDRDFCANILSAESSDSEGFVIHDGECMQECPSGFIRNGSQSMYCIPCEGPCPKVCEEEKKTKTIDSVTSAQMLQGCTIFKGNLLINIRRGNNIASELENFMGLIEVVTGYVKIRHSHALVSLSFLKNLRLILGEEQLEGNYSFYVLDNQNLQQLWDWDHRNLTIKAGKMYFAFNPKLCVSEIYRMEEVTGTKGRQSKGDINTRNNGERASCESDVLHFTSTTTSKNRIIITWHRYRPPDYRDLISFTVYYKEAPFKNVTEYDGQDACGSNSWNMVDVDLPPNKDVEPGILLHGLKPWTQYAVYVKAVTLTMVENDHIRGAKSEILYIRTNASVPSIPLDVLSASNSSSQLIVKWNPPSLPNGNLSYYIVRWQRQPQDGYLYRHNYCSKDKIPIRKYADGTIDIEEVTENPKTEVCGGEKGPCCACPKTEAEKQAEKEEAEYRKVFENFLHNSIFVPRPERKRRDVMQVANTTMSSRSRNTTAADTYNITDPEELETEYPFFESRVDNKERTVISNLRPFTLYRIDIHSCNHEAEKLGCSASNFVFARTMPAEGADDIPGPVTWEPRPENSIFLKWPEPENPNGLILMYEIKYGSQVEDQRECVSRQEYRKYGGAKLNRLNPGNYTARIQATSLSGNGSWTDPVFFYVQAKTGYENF
T4 sequence (P08069 31-933): as above
T8 sequence (P08069 31-933 Y58A): as the sequence (P08069 31-933) above, with Y28A counted along it
T9 sequence (P08069 31-933 A257K): as the sequence (P08069 31-933) above, with A227K counted along it
T1 sequence (P08069 other isoform, or with tags, fused parts or gaps): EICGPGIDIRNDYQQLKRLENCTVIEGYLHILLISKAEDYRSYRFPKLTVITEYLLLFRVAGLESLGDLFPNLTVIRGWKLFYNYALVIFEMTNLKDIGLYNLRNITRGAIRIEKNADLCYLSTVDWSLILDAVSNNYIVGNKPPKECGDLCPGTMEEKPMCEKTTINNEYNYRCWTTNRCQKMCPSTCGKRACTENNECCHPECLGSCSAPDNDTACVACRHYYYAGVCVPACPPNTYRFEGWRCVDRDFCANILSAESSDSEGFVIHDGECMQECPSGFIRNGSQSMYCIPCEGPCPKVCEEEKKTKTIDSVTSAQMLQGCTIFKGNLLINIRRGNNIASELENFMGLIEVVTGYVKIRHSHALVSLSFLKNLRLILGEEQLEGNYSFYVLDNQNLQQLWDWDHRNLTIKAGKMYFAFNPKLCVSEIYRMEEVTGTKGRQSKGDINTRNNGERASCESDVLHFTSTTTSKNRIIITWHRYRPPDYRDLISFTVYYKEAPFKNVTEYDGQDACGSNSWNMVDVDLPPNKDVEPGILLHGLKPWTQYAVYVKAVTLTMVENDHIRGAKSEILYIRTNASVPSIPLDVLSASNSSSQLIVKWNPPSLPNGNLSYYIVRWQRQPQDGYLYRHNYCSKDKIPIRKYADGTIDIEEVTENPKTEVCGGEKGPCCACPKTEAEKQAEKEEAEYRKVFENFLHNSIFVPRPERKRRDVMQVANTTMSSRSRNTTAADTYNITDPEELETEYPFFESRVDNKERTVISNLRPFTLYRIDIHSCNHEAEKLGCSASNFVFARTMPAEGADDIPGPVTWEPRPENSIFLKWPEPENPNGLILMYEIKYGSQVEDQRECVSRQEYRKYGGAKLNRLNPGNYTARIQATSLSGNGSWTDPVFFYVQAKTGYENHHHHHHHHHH
T5 sequence (P08069 31-933 E294K): as the sequence (P08069 31-933) above, with E264K counted along it
T10 sequence (P08069 31-933 H494E): as the sequence (P08069 31-933) above, with H464E counted along it
T6 sequence (P08069 31-933 G301D): as the sequence (P08069 31-933) above, with G271D counted along it
T3 sequence (P08069 31-1367, stated change not applied): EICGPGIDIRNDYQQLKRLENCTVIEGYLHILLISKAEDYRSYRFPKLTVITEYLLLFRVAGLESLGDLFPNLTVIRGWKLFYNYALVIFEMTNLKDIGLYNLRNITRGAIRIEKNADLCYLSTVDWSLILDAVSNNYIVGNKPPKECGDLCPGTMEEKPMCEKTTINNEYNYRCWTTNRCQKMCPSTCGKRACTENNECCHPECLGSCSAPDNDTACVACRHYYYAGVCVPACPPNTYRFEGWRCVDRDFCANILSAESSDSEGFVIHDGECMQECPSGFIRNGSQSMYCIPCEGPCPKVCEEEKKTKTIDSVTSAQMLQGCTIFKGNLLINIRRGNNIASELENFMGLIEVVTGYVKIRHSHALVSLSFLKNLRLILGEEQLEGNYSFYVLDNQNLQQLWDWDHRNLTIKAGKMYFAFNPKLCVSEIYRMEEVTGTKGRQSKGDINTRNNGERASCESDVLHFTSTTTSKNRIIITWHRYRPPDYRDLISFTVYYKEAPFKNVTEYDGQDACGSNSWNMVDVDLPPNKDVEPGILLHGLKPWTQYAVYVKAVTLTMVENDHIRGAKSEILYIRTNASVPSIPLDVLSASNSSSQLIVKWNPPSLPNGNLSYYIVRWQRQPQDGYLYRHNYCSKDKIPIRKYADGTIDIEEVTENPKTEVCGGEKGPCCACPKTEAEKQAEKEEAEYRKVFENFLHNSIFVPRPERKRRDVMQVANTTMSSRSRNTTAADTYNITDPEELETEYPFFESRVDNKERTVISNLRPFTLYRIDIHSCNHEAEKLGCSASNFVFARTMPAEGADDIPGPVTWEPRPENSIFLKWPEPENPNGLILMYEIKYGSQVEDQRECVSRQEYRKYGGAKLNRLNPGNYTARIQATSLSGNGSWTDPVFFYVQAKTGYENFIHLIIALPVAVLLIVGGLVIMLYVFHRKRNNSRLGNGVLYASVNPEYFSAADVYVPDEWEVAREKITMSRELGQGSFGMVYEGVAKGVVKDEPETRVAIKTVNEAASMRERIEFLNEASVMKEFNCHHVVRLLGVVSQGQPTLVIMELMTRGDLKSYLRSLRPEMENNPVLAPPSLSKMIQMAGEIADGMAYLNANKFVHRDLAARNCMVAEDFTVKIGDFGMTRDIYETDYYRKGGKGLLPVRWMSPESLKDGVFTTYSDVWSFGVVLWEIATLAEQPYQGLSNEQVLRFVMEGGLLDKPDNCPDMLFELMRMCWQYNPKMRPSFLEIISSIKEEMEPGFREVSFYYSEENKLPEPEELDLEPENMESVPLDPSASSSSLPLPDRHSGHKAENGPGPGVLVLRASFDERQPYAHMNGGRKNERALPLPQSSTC
T7 sequence (P08069 31-933 E769W/L771F): as the sequence (P08069 31-933) above, with E739W, L741F counted along it

B1: M13-C06 antibody (antibody, V domains shown)
VH: EVQLLESGGGLVQPGGSLRLSCAASGFTFSIYRMQWVRQAPGKGLEWVSGISPSGGTTWYADSVKGRFTISRDNSKNTLYLQMNSLRAEDTAVYYCARWSGGSGYAFDIWGQGTMVTVSS
VL: DIQMTQSPLSLSASVGDRVTITCQASRDIRNYLNWYQQKPGKAPKLLIYDASSLQTGVPSRFGGSGSGTDFSFTIGSLQPEDIATYYCQQFDSLPHTFGQGTKLEIK
notes: Fully human full-length antibody (ATCC PTA-7444); also called M13.C06.G4.P.agly; M13-C06.G4P.agly
As a reminder, the EC50 is the midpoint of the concentration-response curve. A higher EC50 goes with lower potency in that assay. For orientation: Kd means the equilibrium constant for the complex coming apart. Lower therefore signals a tighter complex. Regarding B1, the “IC50 (read off the curve)” value in [1] is around 30 nM. For the same molecule, in the experiment with sIGF-1R(1-903) [2], the “ΔH°” value was -21.9 kcal/mol. In [3], the EC50 came to 0.2 nM. In the experiment with sIGF-1R(1-903) [4], the Kd amounted to 0.1 nM and the “n (#C06 specific binding sites)” value was found to be 1. The “IC50 (read off the curve)” value with human IGF-1R(1-903)-Fc is around 1 nM.

B2: M13-C06 Fab (Fab, V domains shown)
VH: EVQLLESGGGLVQPGGSLRLSCAASGFTFSIYRMQWVRQAPGKGLEWVSGISPSGGTTWYADSVKGRFTISRDNSKNTLYLQMNSLRAEDTAVYYCARWSGGSGYAFDIWGQGTMVTVSS
VL: DIQMTQSPLSLSASVGDRVTITCQASRDIRNYLNWYQQKPGKAPKLLIYDASSLQTGVPSRFGGSGSGTDFSFTIGSLQPEDIATYYCQQFDSLPHTFGQGTKLEIK
notes: Fab made by enzymatic digestion of the IgG
On to B2, for which the “Biacore Relative RUmax” value in experiment [5] was 0.6; in experiment [6], 0.8; in [7], 1.9; in experiment [8], 0.6; in experiment [9], 1.7. Further, in the experiment with sIGF-1R(1-903) [4], the affinity, expressed as Kd, was 0.6 nM. The “n (#C06 specific binding sites)” value with sIGF-1R(1-903) [4] was 2. In experiment [10], the binding result is on record as “no binding (tested: 10 nM)”.
